What was measured:
SLITRK6 mRNA = SLITRK6 mRNA expression by Q-PCR in BRAF-mutant melanoma cells under MAPK inhibitor treatment; assay type: cell-based; conditions: PLX4032 1 μM alone or with AZD6244 0.1 μM; A375, Lu1205, WM266-4, WM983B, WM35, WM115 cells; 72 h for WM35 and WM115
Experimental: FIG. 1. SLITRK6 mRNA expression is induced under MAPK inhibitor treatment in BRAF-mutant melanoma cells. A) A375, Lu1205, WM266-4 and WM983B cell lines were treated with a BRAF inhibitor (PLX4032) at 1 μM alone or in combination with a 0.1 μM MEK inhibitor (AZD6244). mRNA fold increase relative to the DMSO control is determined by Q-PCR. The results are presented as the mean±SD of the average of 3 independent experiments. *** p<0.001; T-test. B) BRAF-mutant melanoma cells lines WM35 and WM115 were treated with a BRAF inhibitor (PLX4032, 1 μM) alone or in combination with a MEK inhibitor (AZD6244, 0.1 μM) for 72 h and SLITRK6 mRNA was analyzed by RT-qPCR. Data shown are the means±standard deviation of 3 independent experiments. ** p<0.01; * p<0.05; t-test.

SLITRK6 [1] = assay: Staining of A375 cells for SLITRK6: antibody internalization; assay type: cell-based; conditions: si-Ctl or si-SLITRK6, PLX4032 1 μM alone or with AZD6244 0.1 μM for 48 h
Experimental: FIG. 6. […] A375 cells were transfected with siRNA control (si-Ctl) or targeting SLITRK6 (si-SLITRK6) before treatment with PLX4032 (1 μM) alone or in combination with AZD6244 (0.1 μM) for 48 h. Cells were then stained for SLITRK6 (green) and DNA was counterstained with DAPI (blue).

SLITRK6 [2] = assay: Staining of A375 cells for SLITRK6: antibody binding at the membrane; conditions: si-Ctl or si-SLITRK6, PLX4032 1 μM alone or with AZD6244 0.1 μM for 48 h
Experimental: FIG. 5. […] A375 cells were transfected with siRNA control (si-Ctl) or targeting SLITRK6 (si-SLITRK6) before treatment with PLX4032 (1 μM) alone or in combination with AZD6244 (0.1 μM) for 48 h. Cells were then stained for SLITRK6 (green) and DNA was counterstained with DAPI (blue).

[3] = listed as antibody against SLITRK6

**Q.** CCCS(=O)(=O)Nc1ccc(F)c(C(=O)c2c[nH]c3ncc(-c4ccc(Cl)cc4)cc23)c1F [PLX4032] was tested. Which “SLITRK6 mRNA expression (fold increase relative to the DMSO control)” value (SLITRK6 mRNA) did it give?
**A.** induced

B1: Hal5-10acl2: antibody directed against SLITRK6, produced by CHO cell ATCC PTA-13102; VH SEQ ID NO: 1, VL SEQ ID NO: 2 (antibody, V domains shown)
VH: QVQLVESGGGVVQPGRSLRLSCAASGFTFSSYGMHWVRQAPGKGLEWVAVIWYDGSNQYYADSVKGRFTISRDNSKNTLFLQMHSLRAEDTAVYYCARGLTSGRYGMDVWGQGTTVTVSS
VL: DIVMTQSPLSLPVTPGEPASISCRSSQSLLLSHGFNYLDWYLQKPGQSPQLLIYLGSSRASGVPDRFSGSGSGTDFTLKISRVEAEDVGLYYCMQPLQIPWTFGQGTKVEIKR
modifications: Synthetic heavy chain variable region of Hal5-10acl2; Synthetic light chain variable region of Hal5-10acl2
**Q.** Which “internalization of the antibody and its target” value (SLITRK6 [1]) does the source give for B1 here?
**A.** internalizes the tumor cells only after a treatment with a MAPK inhibitor

**Q.** And the “internalization of the antibody and its target” value (SLITRK6 [1]; [3])?
**A.** internalizes its target specifically only after MAPKi treatment

**Q.** And the “binding of the antibody to SLITRK6 at the cell membrane” value (SLITRK6 [2])?
**A.** binds to melanoma cells only when the cells are treated with a MAMPK inhibitor

**Q.** What about the “binding of the antibody to SLITRK6 at the cell membrane” value (SLITRK6 [2]; [3]) of the same molecule?
**A.** binds its target specifically at the membrane only after MAPK inhibitor treatment

Reference: patent US11471538B2, “Methods and pharmaceutical compositions for the treatment of cancers associated with activation of the MAPK pathway” (INSERM (Institut National de la Santé et de la Recherche …, priority 2017, dated 2022)
